The results in this text go back to patent US10385380B2, “Personalized protease assay to measure protease activity in neoplasms” (The Regents of the University of California, priority 2014, dated 2019).

Entries after “also recorded” stand apart in the source; their conditions may differ. Where two headings read alike, the source gives them in different places. Where no end group is shown, it is not given here. [ ]: non-standard residue; d: D form. hPhe = N[C@@H](CCc1ccccc1)C(=O)O

One assay relates to multiple MMPs. Kind of assay: Specificity of first generation cleavable site among MMPs. The format is biochemical. From the text:
In contrast to mRNA expression or copy number detection methods, RACPPs detect in vivo protease activity, thus bypassing the complicated interplay between transcription/translation, pro- and active forms of the enzymes, as well as the presence of inhibitors/activators etc. It was shown that RACPP uptake correlates with tumor burden^15 and with tumor characteristics corresponding to poor survival^18.
RACPPs are capable of monitoring protease activity in real time living animal models of cancer. […] To tease out the involvement of specific individual proteases involved in the various stages of cancer growth, invasion and metastasis, it was sought to identify RACPP cleavable sites that are specific for individual select proteases.

Assay [1] concerns the target T1, MMP-2 (Homo sapiens, UniProt P08253).
T1 sequence (P08253 110-660): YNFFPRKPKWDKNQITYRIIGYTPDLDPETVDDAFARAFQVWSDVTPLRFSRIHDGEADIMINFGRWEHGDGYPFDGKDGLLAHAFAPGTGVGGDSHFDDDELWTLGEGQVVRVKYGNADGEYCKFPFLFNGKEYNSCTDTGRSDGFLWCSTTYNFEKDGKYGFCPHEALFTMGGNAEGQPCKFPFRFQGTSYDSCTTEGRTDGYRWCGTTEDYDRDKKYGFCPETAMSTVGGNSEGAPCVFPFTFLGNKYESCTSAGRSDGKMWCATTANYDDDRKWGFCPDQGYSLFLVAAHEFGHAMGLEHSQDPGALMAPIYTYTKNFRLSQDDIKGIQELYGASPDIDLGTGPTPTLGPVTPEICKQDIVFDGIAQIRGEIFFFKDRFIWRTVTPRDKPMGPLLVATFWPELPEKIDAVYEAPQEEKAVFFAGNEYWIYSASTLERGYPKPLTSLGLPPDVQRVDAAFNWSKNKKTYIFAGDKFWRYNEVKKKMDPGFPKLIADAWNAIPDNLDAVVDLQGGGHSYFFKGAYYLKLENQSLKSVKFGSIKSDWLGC
The experiment in a line: Cell uptake after cleavage of linker by MMP-2. The assay is classed as cell-based. Conditions: cleaved by MMP-2. The text has this: For example, a linker X that includes the amino-acid sequence PLGLAG (SEQ ID NO: 1) may be cleaved by the metalloproteinase enzyme MMP-2 (a major MMP in cancer and inflammation). Cleavage of such a linker X occurs between the central G and L residues, causing cell uptake to increase by 10 to 20-fold. A great deal is known about the substrate preferences of different MMPs, so that linkers X may be designed that are able to bias X to be preferentially sensitive to particular subclasses of MMPs, or to individual members of the large MMP family of proteinases. For example, in some embodiments, linkers X designed to be cleaved by membrane-anchored MMPs are particularly employed because their activity remains localized to the outer surface of the expressing cell. In alternative embodiments, linkers X designed to be cleaved by a soluble secreted MMP are employed where diffusion of cargo C away from the exact location of cleavage may be desired, thereby increasing the spatial distribution of the cargo. Other linkers X cleavable by other MMPs are discussed throughout the application.

A further assay deals with MMP-14 (Homo sapiens, UniProt P50281). The experiment in a line: Cleavage of ACPP substrates by purified MMP-14. The format is biochemical. Conditions: versus MMP-2 and MMP-9. The procedure:
(§1) FIG. 7 describes selectivity for substrates for MMP2, 9 and 14 (1 uM peptide 20 nM enzyme). A) MT1 selective RSHPHfeTLY (SEQ ID NO: 19).
(§2) FIG. 8A, FIG. 8B and FIG. 8C describe selectivity for substrate cut with MMP-2, MMP9 and MMP-14.
(§3) To generate new substrates for MMPs, amino acids were substituted at key position at and near the cleavage site based on the following rule derived by recent work by Ratnikov et al^26 that the amino acid at a certain position must improve cleavage by the specific enzyme and reduce cleavage by other related enzymes. For increased specificity, an amino acid should be red for the enzyme of interest compared green for the other enzymes at the same substitution position (FIG. 36A). These substrates will be tested by treating 5 μM peptide with 20 nM of each enzyme for 2 hours and analyse by gel electrophoresis.
(§4) FAM/Cy5 ratiometric versions of RACPPs with these sequences were made and tested to confirm selectivity. The preferred form Cy5/Cy7 ratiometric versions for in vivo testing with a pegylated carrier to help with solubility is currently being synthesized. For MMP 11 a similar approach will be adopted in finding selective substrates.^26.

In another assay the target is MT2-MMP (Homo sapiens, UniProt P51511). Kind of assay: Cleavage of RS-(Cit)-G-(homoF)-YLY derivatives by MT2-MMP. The format is biochemical.
Another assay has as its target MMP9 (Homo sapiens, UniProt P14780). Kind of assay: Cleavage of ACPP substrates by purified MMP-9. The format is biochemical. As to conditions: versus MMP-2 and MMP-14. The procedure: as §1, §2, §3, §4
Assay [2] has as its target T1, MMP-2. Kind of assay: Cleavage of ACPP substrates by purified MMP-2. The format is biochemical. Conditions: versus MMP-9 and MMP-14. The protocol:
as §1, §2, §3, §4

Assay [3] has as its target urokinase plasminogen activator (uPA) (Homo sapiens, UniProt P00749). The experiment in a line: Screen of protease substrates for cleavage by uPA. The assay is classed as biochemical. Conditions: substrate in the context of an ACPP. The protocol: (§5) To generate novel RACPP species that are selective for uPA, a set of protease substrates were screened that were diverse and likely cleaved by serine protease in that they contain either a lysine or arginine residue flanked by diverse amino acids. […] Several other substrates that were reported to be cleaved by uPA were also tested but were not cleaved possible because the constrained structure of the substrate within the context of an ACPP.
To generate novel RACPP species that are specific for uPA, a set of protease substrates were screened that were diverse and likely cleaved by serine protease in that they contain either a lysine or arginine residue flanked by diverse amino acids.

For another assay, the target named is tPA (Homo sapiens, UniProt P00750). The experiment in a line: Screen of protease substrates for cleavage by tPA. The assay is classed as biochemical. As to conditions: compared with uPA. The protocol:
as §5

Chain of MMP9 (P14780 94-707): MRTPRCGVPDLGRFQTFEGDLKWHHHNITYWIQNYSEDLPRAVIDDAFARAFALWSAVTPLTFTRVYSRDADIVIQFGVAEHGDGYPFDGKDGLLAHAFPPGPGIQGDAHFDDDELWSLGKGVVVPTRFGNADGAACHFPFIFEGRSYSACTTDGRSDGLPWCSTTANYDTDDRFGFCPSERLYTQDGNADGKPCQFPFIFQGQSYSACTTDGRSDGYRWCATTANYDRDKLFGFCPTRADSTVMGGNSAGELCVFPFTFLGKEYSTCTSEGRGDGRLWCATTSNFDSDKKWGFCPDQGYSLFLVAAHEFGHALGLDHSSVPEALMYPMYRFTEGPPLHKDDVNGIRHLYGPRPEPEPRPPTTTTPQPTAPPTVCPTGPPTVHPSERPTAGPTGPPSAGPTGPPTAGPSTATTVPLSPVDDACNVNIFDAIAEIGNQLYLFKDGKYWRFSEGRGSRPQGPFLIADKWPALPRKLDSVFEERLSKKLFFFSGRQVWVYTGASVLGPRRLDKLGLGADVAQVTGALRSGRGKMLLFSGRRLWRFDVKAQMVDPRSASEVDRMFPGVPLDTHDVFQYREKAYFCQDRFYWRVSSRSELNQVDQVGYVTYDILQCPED
Chain of MT2-MMP (P51511 132-669, species assumed): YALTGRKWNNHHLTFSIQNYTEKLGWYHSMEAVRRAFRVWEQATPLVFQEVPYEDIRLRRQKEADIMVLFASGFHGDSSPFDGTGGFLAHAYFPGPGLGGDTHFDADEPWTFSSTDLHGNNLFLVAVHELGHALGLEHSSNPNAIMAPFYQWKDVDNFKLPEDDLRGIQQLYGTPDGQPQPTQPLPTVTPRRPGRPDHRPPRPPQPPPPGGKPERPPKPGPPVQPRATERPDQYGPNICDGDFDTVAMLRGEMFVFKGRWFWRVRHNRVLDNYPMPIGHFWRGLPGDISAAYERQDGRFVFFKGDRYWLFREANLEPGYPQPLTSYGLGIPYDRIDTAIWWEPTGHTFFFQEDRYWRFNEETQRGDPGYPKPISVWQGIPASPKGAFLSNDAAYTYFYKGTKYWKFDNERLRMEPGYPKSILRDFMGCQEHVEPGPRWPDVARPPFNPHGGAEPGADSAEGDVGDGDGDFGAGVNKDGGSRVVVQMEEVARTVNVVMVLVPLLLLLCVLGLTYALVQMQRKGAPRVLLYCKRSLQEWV
Chain of tPA (P00750 36-562, species assumed): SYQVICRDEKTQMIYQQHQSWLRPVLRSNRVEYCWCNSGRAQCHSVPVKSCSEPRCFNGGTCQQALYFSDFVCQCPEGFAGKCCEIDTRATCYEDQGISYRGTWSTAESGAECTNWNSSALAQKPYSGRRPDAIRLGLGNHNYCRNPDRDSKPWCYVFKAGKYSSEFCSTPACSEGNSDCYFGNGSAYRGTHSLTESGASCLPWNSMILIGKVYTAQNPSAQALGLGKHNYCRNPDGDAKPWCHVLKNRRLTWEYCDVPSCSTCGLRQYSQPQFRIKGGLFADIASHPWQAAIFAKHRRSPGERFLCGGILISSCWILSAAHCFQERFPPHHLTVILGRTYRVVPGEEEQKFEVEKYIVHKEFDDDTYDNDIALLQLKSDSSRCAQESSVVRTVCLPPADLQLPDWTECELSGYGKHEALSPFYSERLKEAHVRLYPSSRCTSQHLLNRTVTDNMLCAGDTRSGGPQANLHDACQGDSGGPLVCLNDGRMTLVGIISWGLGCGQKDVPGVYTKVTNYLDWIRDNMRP

Regarding PLGC(Me)AG, the “cleavage by multiple MMPs (lack of specificity)” value in the assay with multiple MMPs was “cut by multiple MMPs”; in the assay with multiple MMPs (listed as PLGC(me)AG) it was “cleaved by multiple proteases”.

On to PLGLAG (cleavable linker), for which the “increase of cell uptake after cleavage between the central G and L residues” value with MMP-2 [1] lay within 10 to 20 fold.

Turning to RS-(Cit)-G-(homoF)-YLY, the “cleavage by / selectivity for MMP-14 (MT1-MMP)” value with MMP-14 is “MMP14 selective”.

For RS-Q-G-(homoF)-YLY (RSQG[hPhe]YLY), in the assay with MT2-MMP, the “cleavage by MT2-MMP” value is listed as “significant cleavage”.

As to RSHG-(homoF)-FLY (RSHG[hPhe]FLY), the “cleavage by / selectivity for MMP-14 (MT1-MMP)” value was “highly selective and efficiently cleaved” with MMP-14; “selective” in the assay with MMP-14 (listed as RSHG(Hfe)FLY).

As for RSHP[hPhe]TLY, the figures for the “cleavage by / selectivity for MMP-14 (MT1-MMP)” value with MMP-14 and with MMP-14 (listed as RSHPHfeTLY) were “MMP14 selective” and “MT1 selective”, respectively.

Turning to SNPYG-Y (SNPYGY; cleavable linker), in the assay with MMP9, the “cleavage by / selectivity for MMP9” value is “MMP9 selective”.

On to SNPYK-Y (SNPYKY; cleavable linker), for which the “cleavage by / selectivity for MMP9” value in the assay with MMP9 is on record as “MMP9 selective”; with MMP9 (listed as SNPYKY), “selective”.

Take TIAH/LH: at MMP-2 [2], the “cleavage by / selectivity for MMP-2” value is given as “selectively cleaved”.

As for TIAHLA (cleavable linker), the “cleavage by / selectivity for MMP-2” value with MMP-2 [2] is given as “MMP2 selective”.

On to TLSE-LH (TLSELH; cleavable linker), for which the “cleavage by / selectivity for MMP-2” value in the assay with MMP-2 [2] was “MMP-2 selective”.

With YGRAAA (cleavable linker), in assay [3], the “cleavage by uPA” value is “efficiently cleaved; also recorded: increase in Cy5/Cy7 signal ratio”. Further, in the assay with tPA, the “cleavage by tPA” value is reported as “to a lesser extent”.
